Measurements published in patent US20240317847A1 (Bayer, published 2024).
Changes are numbered by the printed parent chain. In names and notes the source's numbering stands. Values belong to the binder of their own block, whether it stands above or below them.

How the values were obtained:
[1] = target: T1, human IL-11 (Invigate, e.g., lot #C121021-19) (human, UniProt P20809 22-199); assay: SPR, Biacore 8K; antibody captured on anti-human IgG Fc chip, IL-11 analyte 0-50 nM, 1:1 fit
T1 construct: Bought protein; also called hIL-11; hIL11
T1 sequence: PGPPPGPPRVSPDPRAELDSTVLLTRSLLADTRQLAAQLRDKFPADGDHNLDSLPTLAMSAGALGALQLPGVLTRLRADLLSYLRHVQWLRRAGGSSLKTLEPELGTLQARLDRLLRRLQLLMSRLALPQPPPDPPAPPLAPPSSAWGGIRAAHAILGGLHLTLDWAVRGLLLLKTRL
Method: (§1) Antibody binding affinity to hIL-11 (Invigate, Germany, e.g., lot #C121021-19) and mIL-11 (Invigate, Germany, e.g., lot #C210819-09) was detected using Biacore 8K. Each antibody was captured on an anti-human IgG Fc antibody immobilized CM5 sensor chip (GE). hIL-11 and mIL-11 at different concentrations (0, 5, 15.82 and 50 nM) in 1×HBS-EP+ (pH 7.4) (GE healthcare) were injected over the sensor chip at a flow rate of 30 μL/min for an association phase of 120 s, followed by 200 s dissociation phase. The chip was then regenerated by 10 mM Glycine, pH 1.5 after each binding cycle.
(§2) The sensorgrams of blank surface and buffer channel were subtracted from the test sensorgrams. The experimental data was fitted by 1:1 model using Langmiur analysis. Molecular weight of 19.3 kDa was used to calculate the molar concentration of human and mouse IL-11.

[2] = target: T2, murine IL-11 (Invigate, e.g., lot #C210819-09) (mouse, UniProt P47873 22-199); assay: as above
T2 construct: Bought protein; biotinylated where captured on streptavidin plates; also called mIL-11; mIL11
T2 sequence: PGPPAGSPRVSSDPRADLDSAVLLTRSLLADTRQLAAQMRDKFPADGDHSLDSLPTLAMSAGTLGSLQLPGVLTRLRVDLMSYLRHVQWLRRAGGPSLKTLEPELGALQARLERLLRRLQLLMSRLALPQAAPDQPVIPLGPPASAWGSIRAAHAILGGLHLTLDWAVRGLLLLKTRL
Method: as §1, §2

murine IL-11 = target: T3, murine IL-11 (mouse, UniProt P47873 22-199); assay: SPR, antibody captured, IL-11 as analyte
T3 construct: bought from Invigate; also called mIL-11; mIL11
T3 sequence: T2 sequence
Method: (§3) Antibodies were captured via anti-mouse Fc IgGs (“Mouse antibody capture kit, Order No. BR100383, Cytiva) covalently amine coupled to a Series S CM5 sensor chip (Cytiva). The amine coupling was carried out according to the manufacturer's instructions using 1-ethyl-3-(3-dimethylaminopropyl) carbodiimide hydrochloride (EDC), N-hydroxysuccinimide (NHS) and ethanolamine HCl, pH 8.5 (“Amine Coupling Kit” BR-1000-50, Cytiva.). Human IL-11 (Invigate, e.g., lot #C121021-19), and murine IL-11 (Invigate, e.g., lot #C210819-09) were used as analytes. […] Based on that experiment an IL-11 concentration range was chosen to optimally determine kinetics and affinity of anti-IL-11 antibodies in multicycle kinetics mode. The sensor surface was regenerated with glycine pH 1.7 after each antigen injection. Obtained sensorgrams were double referenced (subtraction of reference flow cell signal and buffer injection) and were fitted to a 1:1 Langmuir binding model to derive kinetic data using the Biacore T200 Evaluation software or the Biacore Insight software.
(§4) 42 hits from the IL-11 and […] screening analysis were selected, expressed by transient transfection of mammalian cells and purified as described in Example 15. Antibodies were then tested for human IL-11 and murine IL-11 binding by SPR as described in Example 16.

human IL-11 = target: T4, human IL-11 (human, UniProt P20809 22-199); assay: SPR, antibody captured, IL-11 as analyte
T4 construct: bought from Invigate; also called hIL-11; hIL11
T4 sequence: T1 sequence
Method: as §3, §4

B1: TPP-31277 (antibody, human IgG4, V domains shown)
VH: EVQLLESGGGLVQPGGSLRLSCAASGFTFSHYDMNWLRQAPGKGLEWVGVISYDGSNKFYADFVKGRFTISRDNSKNTLYLQMNSLRAEDTAVYYCARTPGSHFDYWGQGTLVTVSS
VL: QSVLTQPPSASGTPGQRVTISCSGSSSNIGSNAVNWYQQLPGTAPKLLIYYDDLLPSGVPDRFSGSKSGTSASLAISGLRSEDEADYYCSAWDDSLNGVVFGGGTKLTVL
notes: consecutive numbering; also called VL-N31S
- Kd [1]: 0.0094 µM
- Kd [2]: 0.012 µM

B3: TPP-31282 (antibody, human IgG4, V domains shown)
VH: B1 VH
VL: B1 VL with S31N, D53N
notes: consecutive numbering; also called VL-D53N
- Kd [1]: 0.013 µM
- Kd [2]: 0.019 µM

B4: TPP-31285 (antibody, human IgG4, V domains shown)
VH: B1 VH
VL: B1 VL with S31N, S90A
notes: consecutive numbering; also called VL-S90A
- Kd [1]: 0.0076 µM
- Kd [2]: 0.018 µM

B7: TPP-31283 (antibody, human IgG4, V domains shown)
VH: B1 VH
VL: B1 VL with S31N, L54Q
notes: consecutive numbering; also called VL-L54Q
- Kd [1]: 0.048 µM
- Kd [2]: 0.041 µM

B9: TPP-31284 (antibody, human IgG4, V domains shown)
VH: B1 VH
VL: B1 VL with S31N, L55R
notes: consecutive numbering; also called VL-L55R
- Kd [1]: 0.011 µM
- Kd [2]: 0.015 µM

B11: TPP-31278 (antibody, human IgG4, V domains shown)
VH: B1 VH
VL: B1 VL with S31N, A33Y
notes: consecutive numbering; also called VL-A33Y
- Kd [1]: 0.002 µM
- Kd [2]: 0.0012 µM

B13: TPP-31281 (antibody, human IgG4, V domains shown)
VH: B1 VH
VL: B1 VL with S31N, D52N
notes: consecutive numbering; also called VL-D52N
- Kd [1]: 0.17 µM
- Kd [2]: 0.13 µM

B14: TPP-31286 (antibody, human IgG4, V domains shown)
VH: B1 VH with E1Q
VL: B1 VL with S31N
notes: consecutive numbering; also called VH-E1Q
- Kd [1]: 0.0091 µM
- Kd [2]: 0.012 µM

B18: TPP-26323 (antibody, V domains shown)
VH: EVQLLESGGGLVQPGGSLRLSCAASGFTFSSYGMHWVRQAPGKGLEWVSVISYDGSYKYYADSVKGRFTISRDNSKNTLYLQMNSLRAEDTAVYYCAAGVPDYWGQGTLVTVSS
VL: QSVLTQPPSASGTPGQRVTISCTGSSSNIGAGYDVHWYQQLPGTAPKLLIYSNNERPSGVPDRFSGSKSGTSASLAISGLRSEDEADYYCAAWDGSLNGPVFGGGTKLTVL
notes: constant regions not restated
- Kd (murine IL-11): 0.00058 µM
- Kd (human IL-11): 0.01 µM

B19: TPP-26326 (antibody, V domains shown)
VH: B18 VH with S31Y
VL: B18 VL with G95D
notes: constant regions not restated
- Kd (murine IL-11): 0.0012 µM
- Kd (human IL-11): 0.0093 µM

B21: TPP-26328 (antibody, V domains shown)
VH: B18 VH with G99T
VL: B18 VL with G95D
notes: constant regions not restated
- Kd (murine IL-11): 0.0013 µM
- Kd (human IL-11): 0.012 µM

B22: TPP-26330 (antibody, V domains shown)
VH: B18 VH with S31F
VL: B18 VL with G95D
notes: constant regions not restated
- Kd (murine IL-11): 0.0017 µM
- Kd (human IL-11): 0.0095 µM

B23: TPP-26331 (antibody, V domains shown)
VH: B18 VH with M34G
VL: B18 VL with G95D
notes: constant regions not restated
- Kd (murine IL-11): 0.00095 µM
- Kd (human IL-11): 0.015 µM

B24: TPP-26329 (antibody, V domains shown)
VH: B18 VH with Y32W
VL: B18 VL with G95D
notes: constant regions not restated
- Kd (murine IL-11): 0.00092 µM
- Kd (human IL-11): 0.014 µM

B25: TPP-26324 (antibody, V domains shown)
VH: B18 VH with A61R
VL: B18 VL with G95D
notes: constant regions not restated
- Kd (murine IL-11): 0.0012 µM
- Kd (human IL-11): 0.013 µM

B26: TPP-18068 (antibody, mouse IgG1)
heavy: EVQLLESGGGLVQPGGSLRLSCAASGFTFSSYGMHWVRQAPGKGLEWVSVISYDGSYKYYADSVKGRFTISRDNSKNTLYLQMNSLRAEDTAVYYCAAGVPDYWGQGTLVTVSSAKTTPPSVYPLAPGSAAQTNSMVTLGCLVKGYFPEPVTVTWNSGSLSSGVHTFPAVLQSDLYTLSSSVTVPSSTWPSETVTCNVAHPASSTKVDKKIVPRDCGCKPCICTVPEVSSVFIFPPKPKDVLTITLTPKVTCVVVDISKDDPEVQFSWFVDDVEVHTAQTQPREEQFNSTFRSVSELPIMHQDWLNGKEFKCRVNSAAFPAPIEKTISKTKGRPKAPQVYTIPPPKEQMAKDKVSLTCMITDFFPEDITVEWQWNGQPAENYKNTQPIMDTDGSYFVYSKLNVQKSNWEAGNTFTCSVLHEGLHNHHTEKSLSHSPGK
light: QSVLTQPPSASGTPGQRVTISCTGSSSNIGAGYDVHWYQQLPGTAPKLLIYSNNERPSGVPDRFSGSKSGTSASLAISGLRSEDEADYYCAAWDDSLNGPVFGGGTKLTVLGQPKSSPSVTLFPPSSEELETNKATLVCTITDFYPGVVTVDWKVDGTPVTQGMETTQPSKQSNNKYMASSYLTLTARAWERHSSYSCQVTHEGHTVEKSLSRADCS
notes: mIgG1, Lambda; also called WT; parent clone
- Kd (murine IL-11): 0.00086 µM
- Kd (human IL-11): 0.012 µM

The remaining lines, values ahead:

- Kd [1]: 0.011 µM
- Kd [2]: 0.015 µM
B2: TPP-31288 (antibody, human IgG4, V domains shown)
VH: B1 VH with L11V
VL: B1 VL with S31N
notes: consecutive numbering; also called VH-L11V

- Kd [1]: 0.02 µM
- Kd [2]: 0.033 µM
B5: TPP-31295 (antibody, human IgG4, V domains shown)
VH: B1 VH with F59Y
VL: B1 VL with S31N
notes: consecutive numbering; also called VH-F59Y

- Kd [1]: 0.011 µM
- Kd [2]: 0.019 µM
B6: TPP-31292 (antibody, human IgG4, V domains shown)
VH: B1 VH with N35H
VL: B1 VL with S31N
notes: consecutive numbering; also called VH-N35H

- Kd [1]: 0.29 µM
- Kd [2]: 0.3 µM
B8: TPP-31290 (antibody, human IgG4, V domains shown)
VH: B1 VH with H31S
VL: B1 VL with S31N
notes: consecutive numbering; also called VH-H31S

- Kd [1]: 0.0048 µM
- Kd [2]: 0.012 µM
B10: TPP-31293 (antibody, human IgG4, V domains shown)
VH: B1 VH with L37V
VL: B1 VL with S31N
notes: consecutive numbering; also called VH-L37V

- Kd [1]: 0.0093 µM
- Kd [2]: 0.013 µM
B12: TPP-31287 (antibody, human IgG4, V domains shown)
VH: B1 VH with L5V
VL: B1 VL with S31N
notes: consecutive numbering; also called VH-L5V

- Kd [1]: 0.011 µM
- Kd [2]: 0.017 µM
B15: TPP-31294 (antibody, human IgG4, V domains shown)
VH: B1 VH with G49A
VL: B1 VL with S31N
notes: consecutive numbering; also called VH-G49A

- Kd [1]: 0.0096 µM
- Kd [2]: 0.014 µM
B16: TPP-31289 (antibody, human IgG4, V domains shown)
VH: B1 VH with G16R
VL: B1 VL with S31N
notes: consecutive numbering; also called VH-G16R

- Kd [1]: 0.0094 µM
- Kd [2]: 0.012 µM
B17: TPP-31296 (antibody, human IgG4, V domains shown)
VH: B1 VH with F63S
VL: B1 VL with S31N
notes: consecutive numbering; also called VH-F63S

- binding result (murine IL-11): no binding
- Kd (human IL-11): 0.0064 µM
B20: TPP-26325 (antibody, V domains shown)
VH: B18 VH with S31W
VL: B18 VL with G95D
notes: constant regions not restated
